Results from the nanobody polyreactivity screen of Harvey et al. (2022).

assay: yeast display, Sf9 membrane polyspecificity reagent, FACS + sequencing; frameworks hold sequencing errors
How it was run: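 Genes from sorted yeast were amplified by colony PCR, read by MiSeq 2 × 250 sequencing and filtered on CDR length. These cells carried a synthetic nanobody library in Saccharomyces cerevisiae BJ5465 and were sorted by FACS into low and high (top ~1%) gates on anti-HA and streptavidin fluorescence. Polyreactivity is labelled according to the gate of origin.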

Sequence | polyreactivity (PSR sort gate)
QVQLVESGGGLVQAGGSLRLSCAASGSTFAVYTMGWYRQAPGKERELSTSYADSVKGRFTISRDNAKNTVYLQMNSLKPEDTAVYYCAADYDAWYDDIEYDYWGQGTQVTVSS | low polyreactivity
QVQLVESGGGLVQAGGSLRLSCAASGSTFAWYDMGWYRQAPGNEREFVAAIDYGGGSTYADSVKGRFTISRDKEKNTVYLQMNSLKPEDTAVYYCNADNWVYLYDYWGQGTQVTVSS | low polyreactivity
QVQLVESGGGLVQAGGSLRLSCAASGSTFAYAMGCYRQAPGKERELVAAIRTTGGSTYYADSVKGRFTISRDNAKNTVYFQMNSLNPEDSAVYYCAAVWGYGQYGSKYYYKYGYWGQGTQVTVSS | high polyreactivity
QVQLVESGGGLVQAGGSLRLSCAASGSTFAYNAMGWYRQAPGKERELVAAIRISGGTTYYADSVKGRFTISRDNAKNTVYLQMNSLKREDTAVYYCAAGTAGTTGSPKFSGYGYDYWGQGTQVTVSS | low polyreactivity
QVQLVESGGGLVQAGGSLRLSCAASGSTFAYNAMGWYRQAPGKERELVAAISWRGGSTYYADSVKGRFTISRDNAKNTVYLQMNSLKPEDTAVYYCAALYPYKREDYWGQGTQVTVSS | high polyreactivity
QVQLVESGGGLVQAGGSLRLSCAASGSTFAYNAMGWYRQAPGKERELVAVITWSDDRTYYADSVKGRFTISRDNAKNTVYLQMNSLKPEDTSVYYCAADRSGYWHYYTPYDYWGQGTQVTVSS | low polyreactivity
QVQLVESGGGLVQAGGSLRLSCAASGSTFAYNDMGWYRQAPGKERELVADIRSGGNTNYADSVKGRFTISRDNAKNTVYLQMNSLKPEDTAFYYCNVKYFVVAGYRYVKFDYWGQGTQVTVSS | low polyreactivity
QVQLVESGGGLVQAGGSLRLSCAASGSTFAYNVMGWYRQAPGKERELVAAITISGTSTYYADSVKGRFTISRDNAKNTVYLQMNSLKPEDTAVYYCAARRDRGRVKFYYWGQGTQVTVSS | high polyreactivity
QVQLVESGGGLVQAGGSLRLSCAASGSTFAYYAMGWYRQAPGKERELVAAISWRGGSTYYADSVKGRFTISRDNAKNTVYLLMNILKPEVTAVYYCAAARDRWGNYWGQGTQVTVSS | high polyreactivity
QVQLVESGGGLVQAGGSLRLSCAASGSTFAYYAMGWYRQAPGKERELVAAITSSGGSTYYADSVKGRFTISRDKAKNTVYLQMNSLKPEDTAVYYCNARYRRKSWRPFDYWGQGTQVTVSS | high polyreactivity
QVQLVESGGGLVQAGGSLRLSCAASGSTFAYYVMGWYRQAPGKERELVAAISRGGRTYYADSVKGRFTISRDNAKNTVYLQMNSLKPEDTAVSYCAKPYHQRSAKVDYWGQGTQVTVSS | low polyreactivity
QVQLVESGGGLVQAGGSLRLSCAASGSTFAYYVMGWYRQAPGKERELVAAITSSGGRTYYADSVKGRFTISRDNAKNTVYLQMNSLKPEDTAVYYCAKVSQRRVDNSDYDYWGQGTQVTVSS | high polyreactivity
QVQLVESGGGLVQAGGSLRLSCAASGSTFCGYAMGWYRQAPGKERELVAAITNGGSTYADSVKGRFTISRDNAKNTVYLQMNSLKPEDTAVYYCNTETGPSPVPVYDTEVDSWGQRTQVTVSS | low polyreactivity
QVQLVESGGGLVQAGGSLRLSCAASGSTFCYSVMGWYRQEPRTEREFVAAISTRGDSTYYADSVKGRFTLSRDNAKNTVYLQMNSLKPEDTAVYYCAKSRQSCGRVRLDYWGQGTQVTVSS | low polyreactivity
QVQLVESGGGLVQAGGSLRLSCAASGSTFDANTMGWYRQAPGKERELVAAISSNGGRTYYADSVKGRFTISRDNAKNTVYLQMNSLKPEDTAVYYCAATSYYRYRETYDYWGQGTQVTVSS | high polyreactivity
QVQLVESGGGLVQAGGSLRLSCAASGSTFDAYAMGLYRQAPGKERELVAAITNAGSTNYADSVKGRFTISRDNAKNTVYLQMNSLKPEDTAVYYCATDWYHRYLDGRYDYWGQGTQVTVSS | low polyreactivity

Sequence | polyreactivity (PSR sort gate)
QVQLVESGGGLVQAGGSLRLSCAASGSTFDAYDMGWYRQAPGTERELVADINWSGGITYYADSVKGRFRISRDNAKNTVYLQMNSLKPEDTAVYYCNADASFYSRVNYWGQGTQVTVSS | high polyreactivity
QVQLVESGGGLVQAGGSLRLSCAASGSTFDDNAMGWYRQAPGKERELVAGISTNGGSTSYADSVKGRFTISRDNAKNTVYLQMNSLKPEDTAVYYCAKGMYVQFDYWGQGTQVTVSS | low polyreactivity
QVQLVESGGGLVQAGGSLRLSCAASGSTFDDNAMGWYRQAPGKERELVASITYRGGSTYYADSVKGRFTISRDNAKNTVYLQMNSLKPEDTAVYYCNADYTGAEYDYWGQGTQVTVSS | low polyreactivity
QVQLVESGGGLVQAGGSLRLSCAASGSTFDFNAMGWYRQAPGKERELVAAITGSGGSTDYADSVKGRFTISRDNAKNTVYLQMNSMKPEDTAVYYCNAGKTIDYRDGVGYDHWGQGTQVTVSS | low polyreactivity
QVQLVESGGGLVQAGGSLRLSCAASGSTFDFNAMGWYRQAPGKERELVAAITYSAGSTYSADSVKGRFTISRDNAQNTVDLQMNSLKPEDTAVYYCAAEDVYPGSIDMDDWGQGTQVTVSS | low polyreactivity
QVQLVESGGGLVQAGGSLRLSCAASGSTFDGNAKGWYRQAPGKERELVATINSGSSTNYADSVKGRFTISRDNAKNTVYLQMISLKPEDTAVFYCNVDSGSDSLVYSVRYNYWGQGTQVTVSS | low polyreactivity
QVQLVESGGGLVQAGGSLRLSCAASGSTFDGNAMGWYRQAPGKERELVATINSDDSKNYADSVKGRFTISRDNAKNTVYLQMNSLKPEDTAVYYCAARLYVTPILSYVERYTNDYWGQGTQVTVSS | low polyreactivity
QVQLVESGGGLVQAGGSLRLSCAASGSTFDGNTMGWYRQAPGKERELVAAISGSGGSTYYADSVKGRFTISRDNAKKTVYLQMNSLKPEDTAVYYCAARRIHTTSSRGYYWGQGTQVTVSS | high polyreactivity
QVQLVESGGGLVQAGGSLRLSCAASGSTFDGYAMGWYRQAPGKERELVAAISRSGGRTYNADSVKGRFTISRDYAKNTVYLQMNSLKPEDTAVYYCAAYKPRPQYTDDDYWGQGTQVTVSS | high polyreactivity
QVQLVESGGGLVQAGGSLRLSCAASGSTFDHYTMGWYRQAPGKERELVAAINRIGDSTYYADSVKGRCTISRDNAKNTVYLQMTSLKPEDTAVYYCNTVSLSLRFDYWGQGTQVTVSS | high polyreactivity
QVQLVESGGGLVQAGGSLRLSCAASGSTFDIYALGWDRQAPGKEREMVAVISGGDGSTYYADSVKGRFTISRDNEKNTVYLQMNSLKPEETAVYYFAADRGTVSYLYSPRAVDYWGQGTQVTVSS | low polyreactivity
QVQLVESGGGLVQAGGSLRLSCAASGSTFDIYAMGWYRQAPGKERELVAAISVSDVDTYYADSVKGRFTISRDNAKNTVYLQMNSLKPEDTAVYYCNAERFWPWDYDYWGQGTQVTVSS | high polyreactivity
QVQLVESGGGLVQAGGSLRLSCAASGSTFDIYAMGWYRQAPGKERELVAAITFSGGSTYADSVKGRFTISRDNAKNTVYLQMNSLKPEDTAVYYCAVDGGEFSSYGYWGQGTQVTVSS | low polyreactivity
QVQLVESGGGLVQAGGSLRLSCAASGSTFDKNAMGWYRQAPGKERELVAAITWRGGRTYYADSVKGRFPISRDNAKNTVYLQMNSLKPEDTAVYYCNKVSWEQMDYWGQGTQVTVSS | low polyreactivity
QVQLVESGGGLVQAGGSLRLSCAASGSTFDKYTMGWYRQAPGKDRELVAAISWSGGSTYASSVKGRFTMSRDNAKNTVYLQMTCLKPEDTAVYSCAARYRNYDLWLGNRRGSYYSWGQGTQVTVSS | high polyreactivity
QVQLVESGGGLVQAGGSLRLSCAASGSTFDLYAMGWYRQAPGKERELVAAISSSGGRTYYADAVKGRFTISRDNAKNTVYLQMNSLKPEDTAVYDCAAVGYKYSRYDYWGQGTQVTVSS | high polyreactivity
